What was measured:
[1] = biological target: T1, recombinant SARS-CoV-2 receptor binding domain (RBD) (Examples 1 and 2) (SARS-CoV-2, UniProt P0DTC2 319-541); experiment: ELISA, axis RBD Binding (OD450), D14 sera of mice given the S309 DMAb
T1 construct: also called SARS-CoV-2 RBD

[2] = biological target: T2, recombinant SARS-CoV-2 S1 (Examples 1 and 2) (SARS-CoV-2, UniProt P0DTC2 16-685); experiment: ELISA with sera of DMAb-treated mice
T2 construct: domain: Subunit 1 (S1); also called Subunit 1 (S1) domain; S1 domains

[3] = biological target: T1, recombinant SARS-CoV-2 receptor binding …; experiment: ELISA, axis RBD Binding (OD450), serial dilutions of in vitro expressed DMAb
[4] = biological target: recombinant SARS-CoV-2-RBD (Sino Biological) (SARS-CoV-2, UniProt P0DTC2 319-541)
[5] = biological target: SARS-CoV-2 Spike protein on pseudovirus (wild type) (SARS-CoV-2, UniProt P0DTC2 14-1273); experiment: cell-based or functional assay

B1: S309 SARS-CoV-2 DMAb (antibody, V domains shown)
VH: QVQLVQSGAEVKKPGASVKVSCKASGYTFTSYGISWVRQAPGQGLEWMGWISAYNGNTNYAQKLQGRVTMTTDTSTSTAYMELRSLRSDDTAVYYCARDYTRGAWFGESLIGGFDNWGQGTLVTVSA
VL: EIVLTQSPGTLSLSPGERATLSCRASQSVSSSYLAWYQQKPGQAPRLLIYGASSRATGIPDRFSGSGSGTDFTLTISRLEPEDFAVYYCQQHDTSLTFGQGTKVEIKR
notes: also called S309 DMAb
B1: binds [1].

B2: 2381 DMAb (antibody)
heavy: not shown
light: EVVLTQSPGTLSLSPGERATLSCRASQSVSSSYLAWYQQKPGQAPRLLIYGASSRATGIPDRFSGSGSGTDFTLTISRLEPEDFAVYHCQHFGSSSQWTFGQGTKVEIKRTVAAPSVFIFPPSDEQLKSGTASVVCLLNNFYPREAKVQWKVDNALQSGNSQESVTEQDSKDSTYSLSNTLTLSKADYEKHKVYACEVTHQGLSSPVTKSFNRGEC
B2: binds [2].

B3: 2381 (G) (antibody)
heavy: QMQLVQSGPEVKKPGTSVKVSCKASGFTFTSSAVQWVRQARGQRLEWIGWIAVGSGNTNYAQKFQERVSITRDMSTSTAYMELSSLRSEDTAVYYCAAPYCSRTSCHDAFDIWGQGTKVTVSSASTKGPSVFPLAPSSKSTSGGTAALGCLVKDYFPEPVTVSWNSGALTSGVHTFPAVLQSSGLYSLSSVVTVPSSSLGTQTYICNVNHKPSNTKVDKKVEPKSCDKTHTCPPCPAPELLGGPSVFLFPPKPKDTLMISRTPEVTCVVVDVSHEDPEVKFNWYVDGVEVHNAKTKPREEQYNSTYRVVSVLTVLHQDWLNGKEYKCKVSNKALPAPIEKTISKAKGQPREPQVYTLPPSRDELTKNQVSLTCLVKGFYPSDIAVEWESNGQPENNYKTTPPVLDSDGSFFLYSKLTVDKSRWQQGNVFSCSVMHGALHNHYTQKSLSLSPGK
light: B2 light
B3: binds [3].

B4: 2381 (GK) (antibody)
heavy: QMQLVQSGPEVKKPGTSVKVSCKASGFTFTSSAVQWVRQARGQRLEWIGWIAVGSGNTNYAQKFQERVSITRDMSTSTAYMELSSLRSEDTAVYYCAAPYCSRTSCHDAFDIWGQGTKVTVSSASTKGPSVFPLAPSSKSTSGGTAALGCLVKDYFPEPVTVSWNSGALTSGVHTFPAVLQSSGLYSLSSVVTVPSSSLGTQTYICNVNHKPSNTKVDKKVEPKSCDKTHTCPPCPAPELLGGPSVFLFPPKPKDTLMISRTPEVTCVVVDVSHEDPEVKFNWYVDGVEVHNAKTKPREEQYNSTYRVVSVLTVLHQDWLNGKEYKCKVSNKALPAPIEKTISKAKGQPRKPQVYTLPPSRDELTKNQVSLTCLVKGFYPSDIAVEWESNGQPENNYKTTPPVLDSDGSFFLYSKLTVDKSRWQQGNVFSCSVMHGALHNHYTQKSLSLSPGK
light: B2 light
B4: binds [3].

B5: 2196 DMAb (antibody, V domains shown)
VH: QMQLVQSGPEVKKPGTSVKVSCKASGFTFTSSAVQWVRQARGQRLEWIGWIAVGSGNTNYAQKFQERVSITRDMSTSTAYMELSSLRSEDTAVYYCAAPYCSSISCNDGFDIWGQGTKVTVSS
VL: EVVLTQSPGTLSLSPGERATLSCRASQSVSSSYLAWYQQKPGQAPRLLIYGASSRATGIPDRFSGSGSGTDFTLTISRLEPEDFAVYHCQHYGSSSQWTFGQGTKVEIKR
notes: also called 2196 WT DMAb
B5: binds [3]; binds [2].

B6: WCoVA9 (antibody, V domains shown)
VH: EVQLQQSGAELVKPGASVKLSCTASGFNIKDTYMHWVKQRPEQGLEWIGRIDPANGNTKYDPKFQAKATITANTSSNTAYLHLSSLTSEDTAVYYCAPYYDYVGAMDYWGQGTSVTVSS
VL: DIQMTQSPASQSASLGESVTITCLASQTIGTWLAWYQQKPGKSPQLLIYAATSLADGVPSRFSGSGSGTKFSFKISSLQAEDFVSYYCQQLYNTPLTFGGGTKLEIK
For B6, the Kd [4] was 42 pM, the koff [4] was 1.9e-05 s⁻¹ and the kon [4] was 470000 M⁻¹ s⁻¹. The t1/2 [4] was 10.1 h and the “IC50, pseudovirus neutralization (wild type virus)” value [5] was 4.9 ng/mL.

B7: WCoVA7 (antibody, V domains shown)
VH: EVKLLESGGGLVQPGGSLKLSCAASGFDFSRYWMSWVRQAPGKGLEWIGEINPDSSTINYTPSLKDKFIISRDNAKNTLYLQMSKVRSEDTALYYCARIYYGSPGAMDYWGQGTSVTVSS
VL: SIVMTQTPKFLLVSAGDRVTITCKASQSVSNDVAWYQQKPGQSPKLLIYYASNRYTGVPDRFTGSGYGTDFTFTISTVQAEDLAVYFCQQDYFSPYTFGGGTKLEIK
In the case of B7, the Kd [4] is reported as 280 pM, the koff [4] is reported as 9.3e-05 s⁻¹ and the kon [4] is reported as 330000 M⁻¹ s⁻¹. For the same binder, the t1/2 [4] was 2.07 h and the “IC50, pseudovirus neutralization (wild type virus)” value [5] was 2.6 ng/mL.

Source: patent publication US20230212267A1 (WISTAR INSTITUTE OF ANATOMY AND BIOLOGY, published 2023)
